Literature values, collected in patent publication US20070032474A1, “Use of a compound of formula 1 for making a pharmaceutical composition” (priority 2003, published 2007).

Target: PKBbeta (Homo sapiens, UniProt P31751)
Settings: background, reference (5); read-out: AC50 (activation of PKBbeta)

PKBbeta, sequence (P31751 146-460 limits assumed, species assumed): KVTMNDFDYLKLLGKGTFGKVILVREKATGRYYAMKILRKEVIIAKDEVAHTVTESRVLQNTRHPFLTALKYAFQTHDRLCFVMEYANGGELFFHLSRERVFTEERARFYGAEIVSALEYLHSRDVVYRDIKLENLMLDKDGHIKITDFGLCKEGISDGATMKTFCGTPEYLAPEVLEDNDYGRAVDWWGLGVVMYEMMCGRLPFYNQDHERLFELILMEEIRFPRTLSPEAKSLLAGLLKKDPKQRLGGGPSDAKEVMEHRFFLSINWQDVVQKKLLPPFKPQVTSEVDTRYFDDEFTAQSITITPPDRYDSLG

AC50: 5 µM
Substance: polypeptide NH2-REPRILSEEEQEMFRDFDYIADW-COOH comprising a hydrophobic motif; activates AGC kinases (H-REPRILSEEEQEMFRDFDYIADW-OH) [PIFtide]
